In article PMC10753161 one finds StBIN2 kinase activity as ATP consumption (Kinase-Lumi), 5 μg StBIN2 with varying masses of StSN2 up to 15 μg, against StBIN2 alone and ATP consumed by StBIN2-M with StSN2 against StBIN2 with StSN2; 5 μg kinase + 5, 10 and 15 μg StSN2 (reduced by 63%, 14% and 12%) data, which are given here for one substance.

In assay [1] the target is His-tagged StBIN2 protein (potato (Solanum tuberosum)).
For assay [2], the target named is StBIN2-M (potato (Solanum tuberosum)).

The substance “His-tagged StSN2 protein (from UniProt Q93X17 24-104) (natural protein)” came in with a StBIN2 kinase activity as ATP consumption (Kinase-Lumi), 5 μg StBIN2 with varying masses of StSN2 up to 15 μg, against StBIN2 alone in assay [1] of 10 fold. Also, the ATP consumed by StBIN2-M with StSN2 against StBIN2 with StSN2; 5 μg kinase + 5, 10 and 15 μg StSN2 (reduced by 63%, 14% and 12%) in assay [2] stood at 63 % reduction.
